{"source": "patent CN103910796A", "binders": {"B1": {"name": "全人源的单克隆的抗狂犬病毒中和抗体TRN006 (antibody, V domains shown)", "VH": "QVQLQESGPGLVKPSETLSLTCTVSGGSISSTTSYWGWIRQPPGKGLEWIGSIYYSGSTYYNPSLKSRVTISVDTSKNQFSLKLRSVTAADTAVYFCARHSVTAAYFNYWGQGTLVSVSS", "VL": "DIQMTQSPSSVSASVGDRVTITCRASEGISSWLAWYQQKPGRAPKVLIHGASSLQSGVPSRFSGSGSGADFTLSISSLQPEDFATYYCQQANSFPYTFGQGTKLEIKR"}}, "key": {"狂犬病毒(CVS株)": {"target": "狂犬病毒(CVS株)", "test": "cell-based or functional assay"}, "[1]": {"target": "狂犬疫苗 (rabies vaccine used as ELISA coating antigen)", "test": "ELISA, rabies vaccine coated on plate, HRP goat anti-human IgG"}, "[2]": {"target": "狂犬病毒G蛋白 (rabies virus G protein, RVG) (rabies virus (strain not stated))"}}}
{"binder": "B1", "values": [{"measurement": "保护效价 (RFFIT, Reed & Muench法)", "setting": "狂犬病毒(CVS株)", "result": 3040, "unit": "IU/ml"}, {"measurement": "antibody concentration at which binding is still seen", "setting": "[1]", "result": 0.0024, "unit": "µg/mL"}, {"measurement": "dilution fold at which binding is still seen", "setting": "[1]", "result": 50000, "unit": "fold"}, {"measurement": "fold of MFI over negative control antibody", "setting": "[2]", "result": 300, "unit": "fold"}, {"measurement": "fold of MFI over standard serum", "setting": "[2]", "result": 17, "unit": "fold"}]}
